The target of the test is patched (on patched-transfected EBNA-293 cells). The test is described as follows: FACS competition with Shh-Ig on patched-transfected EBNA-293 cells.

For “soluble human Sonic hedgehog N-terminal fragment (unmodified, produced in E. coli) (from UniProt Q14623 28-201) (ligand)”, the IC50 (in general, the midpoint of a concentration-inhibition curve) turned out to be 0.15 µg/mL. The figure for “tethered human Sonic hedgehog (N-terminal palmitoyl, C-terminal cholesterol) purified from High Five insect cells (from UniProt Q14623 28-201) (ligand)” is 0.4 µg/mL.

(Values after patent EP1577321A1.)
